Data from patent publication US20120014941A1 (Hoffmann-La Roche, published 2012).
One block for each binder: values may come before it.

Tests used:
[1] = molecular target: Cynomologus Monkey Bv8 (Genentech; PUR21590) (cynomolgus monkey); test: SPR (BIAcore 3000, 25 C): cynomolgus monkey Bv8 coupled to CM5 chip, IgG injected; 1:1 Langmuir fit
[2] = molecular target: T1, recombinant human Bv8 (PeproTech) (human, UniProt Q9HC23-2 28-108, biotinylated (Sulfo-NHS-LC-biotin) in the two competition ELISAs with coated antibody); test: competitive ELISA: antibody in serial dilution mixed with biotinylated human Bv8 (57 pM) and put on plate coated with mouse 2G9 IgG1 (m5, the competitor); streptavidin-HRP, OD 450/620; four-parameter fit
T1 construct: Bought protein; also called HuBv8; prokineticin-2
T1 sequence (looked up): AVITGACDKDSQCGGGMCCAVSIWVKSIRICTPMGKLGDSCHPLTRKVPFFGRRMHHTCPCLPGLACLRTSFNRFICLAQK
Procedure: Maxisorp 384 well plates were coated with 1 μg/ml parent mouse 2G9 IgG1 antibody at 25 μl/well in 50 mM sodium carbonate buffer, pH 9.6, at 4° C. overnight. Plates were washed with phosphate buffered saline (PBS) containing 0.05% polysorbate, pH 7.4 and blocked with PBS containing 0.5% BSA, 10 ppm Proclin, pH 7.4, at 80 μL1/well. After one-hour incubation at room temperature, plates were washed. A mixture of serially diluted humanized 2G9 antibodies (0.11 pM-180 nM) in PBS containing 0.5% BSA, 0.05% polysorbate 20, pH 7.4 and biotinylated human Bv8 (final concentration 0.5 ng/ml or 57 pM) were added at 25 μL1/well. After two hour incubation, plates were washed and horseradish peroxidase conjugated streptavidin (GE Healthcare) was added. After a final 30 minute incubation, plates were washed and the substrate 3,3′,5,5′-tetramethyl benzidine (Kirkegaard & Perry Laboratories) was added. The reaction was stopped by adding 1 M phosphoric acid and absorbance was read at 450 nm on a Multiskan Ascent reader (Thermo Scientific, Hudson, N.H.). For data analysis, the titration curves were fitted using a four-parameter nonlinear regression curve-fitting program and the IC₅₀ concentrations were determined (KaleidaGraph, Synergy Software, Reading, Pa.).

[3] = molecular target: T1, recombinant human Bv8 (PeproTech); test: competition ELISA: IgG in serial dilution preincubated with 2 nM biotinylated human Bv8, then put on plate coated with chimeric 2B9 IgG (the competitor); bound biotin-Bv8 read with streptavidin-HRP, in %
Procedure: NUNC™ 96-well Maxisorp immunoplates (NUNC; Roskilde, Denmark) were coated with chimeric 2B9 IgG at 1 μg/mL in PBS overnight and then blocked for an hour at room temperature with PBST buffer (0.5% BSA and 0.05% Tween 20 in PBS). Biotinylation of human Bv8 was prepared using EZ-link Sulfo-NHS-LC-Biotin (Catalog 21335; Pierce; Rockford, Ill.) reagent in a molar ratio of 1:4 (HuBv8: biotin).
To determine the amount of biotinylated human Bv8 in the competition assay, threefold serially diluted biotinylated human Bv8 from 100 nM to 0.04 nM were added to the antibody-coated plates for 15 minutes. Then, the plates were washed with PBT buffer (PBS and 0.05% Tween 20). Bound biotinylated were detected using streptavidin, which were conjugated with horseradish peroxidase (Catalog 21126; Pierce; Rockford, Ill.) and diluted 1:2500 in PBST buffer. […] The optical density was read spectrophotometrically at 450 nm.
To map the Bv8 antibody epitopes with chimeric 2B9, threefold serial dilutions of IgGs (chimeric 2B9, chimeric 3F1, chimeric 2D3, chimeric 2G9 and control IgG) were first incubated with 2 nM biotinylated human Bv8, determined by the above binding assay, in PBST buffer for 1-2 hours at room temperature, and then transferring it onto antibody (chimeric 2B9 IgG; 1 μg/mL)-coated plate for 15 min. […]

[4] = molecular target: T1, recombinant human Bv8 (PeproTech); test: SPR (BIAcore 3000, 25 C): human Bv8 coupled to CM5 chip, IgG injected; 1:1 Langmuir fit
Text: For binding affinity determinations of anti-Bv8 antibodies (Fab or IgG), Surface Plasmon Resonance (SRP) measurement with a BIAcore™-3000 instrument was used. Briefly, CM5 biosensor chip was activated with EDC and NHS reagents according to the supplier's instructions, and human Bv8 (PeproTech) or Cynomologus Monkey (Genentech; PUR21590) was coupled to achieve approximately 150 response units (RU), then following by blocking un-reacted groups with 1M ethanolamine. For kinetics measurements, two-fold serial dilutions of anti-Bv8 Fabs (0.19 nM to 25 nM) or IgGs (0.019 nM to 10 nM) were injected in HBS-P buffer (0.01M HEPES pH 7.4, 0.15M NaCl, 0.005% surfactant P20) at 25° C. with a flow rate of 30 μl/min. Association rates (kₒₙ) and dissociation rates (koff) were calculated using a simple one-to-one Langmuir binding model (BIAcore Evaluation Software version 3.2). The equilibrium dissociation constant (Kd) was calculated as the ratio koff/kₒₙ.

[5] = molecular target: T1, recombinant human Bv8 (PeproTech); test: phage competition ELISA, Fab displayed on phage
Procedure: (§1) MAXISORP™ microtiter plates were coated with recombinant human Bv8 (PeproTech) at 2 μg/ml in PBS overnight and then blocked with PBST buffer (0.5% BSA and 0.05% Tween 20 in PBS) for an hour at room temperature (RT). Phage from culture supernatants were incubated with serially diluted human Bv8 in PBST buffer in a tissue-culture microtiter plate for an hour at RT, after which 80 μl of the mixture was transferred to the target-coated wells for 15 minutes to capture unbound phage. The plate was washed with PBT buffer (0.05% Tween 20 in PBS), and HRP-conjugated anti-M13 (Amersham Pharmacia Biotech) was added (1:5000 in PBST buffer) for 40 minutes. The plate was washed with PBT buffer and developed by adding tetramethylbenzidine substrate (Kirkegaard and Perry Laboratories, Gaithersburg, Md.). The absorbance at 450 nm was plotted as a function of target concentration in solution to determine phage IC₅₀.

[6] = molecular target: T1, recombinant human Bv8 (PeproTech); test: phage competition ELISA: Fab-displaying phage preincubated with serially diluted soluble human Bv8 (the concentration on the axis), unbound phage captured on plate-coated human Bv8, anti-M13-HRP; bound phage in %
Procedure: as §1

Kd [1]: 0.04 nM
koff [1]: 2.5e-05 s⁻¹
kon [1]: 646000 M⁻¹ s⁻¹
IC50 [2]: 0.08 nM
IC50 (read off the curve) [3]: ~1 nM
Kd [4]: 0.02 nM
koff [4]: 1.8e-05 s⁻¹
kon [4]: 758000 M⁻¹ s⁻¹
B1: chimeric 2G9 anti-Bv8 antibody (IgG) (antibody, V domains shown)
VH: EVQLQQSGPEVVKTGASVKISCKASGYSFTDYDMHWVKQSQGKSLEWIGYISCYNGATTYNQKFKGKATFTVDKSSTTAYMQFNSLTSEDSAVYYCARDGNYGEAYAMDYWGQGTSLTVSS
VL: DIVLTQSPASLAVSLGQRATISCKASQSVDYDGDSYMNWYQQKPGQPPKLLIYAASNLESGIPARFSGSGSGTDFTLNIHPVEEEDAATYYCQQINEDPFTFGQGTKVEIK
notes: also called chimeric 2G9 IgG

fold drop in binding affinity compared to h2G9.K4G1 [5]: 100 fold
IC50 (read off the curve) [6]: ~4 nM
B2: h2G9.K4G1 variant CDR-H3 D95E (Fab, V domains shown)
VH: EVQLVQSGAEVKKPGASVKVSCKASGYSFTDYDMHWVRQAPGQGLEWIGYISCYNGATTYNQKFKGRVTITVDKSTSTAYLELSSLRSEDTAVYYCAREGNYGEAYAMDYWGQGTLVTVSS
VL: DIVMTQSPDSLAVSLGERATINCKASQSVDYDGDSYMNWYQQKPGQPPKLLIYAASNLESGVPDRFSGSGSGTDFTLTISSLQAEDVAVYYCQQINEDPFTFGQGTKVEIK
